Data reported in publication PMC9052802.

Target: RopC-U (thiazoline-containing product of the reaction of RopC with MicD-F) (UniProt P03051)
Assay: SEC

- stoichiometry N: 2
Substance: RopC-U (thiazoline-containing product of the reaction of RopC with MicD-F) (from UniProt P03051 1-63) (natural protein)
